Drawing on patent publication US20040213795A1, this text covers Ka and Kd for one molecule.

The target of this assay is Murine PD-1 fusion protein (mouse) (UniProt Q02242). The experiment in a line: SPR (BIAcore 3000), murine PD-1 fusion immobilized on CM5 chip, antibody 25 nM to 500 nM in flow.
Murine PD-1 fusion protein (mouse), sequence (Q02242 25-167): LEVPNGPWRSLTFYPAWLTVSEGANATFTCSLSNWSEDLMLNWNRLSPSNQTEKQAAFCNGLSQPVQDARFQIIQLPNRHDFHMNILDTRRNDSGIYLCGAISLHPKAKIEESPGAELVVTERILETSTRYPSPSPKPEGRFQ

B1: Anti-mouse PD1 antibody J43 (antibody, from another filing, V domains shown)
VH: EVRLLESGGGLVKPEGSLKLSCVASGFTFSDYFMSWVRQAPGKGLEWVAHIYTKSYNYATYYSGSVKGRFTISRDDSRSMVYLQMNNLRTEDTATYYCTRDGSGYPSLDFWGQGTQVTVSS
VL: YELTQPPSASVNVGETVKITCSGDQLPKYFADWFHQRSDQTILQVIYDDNKRPSGIPERISGSSSGTTATLTIRDVRAEDEGDYYCFSGYVDSDSKLYVFGSGTQLTVLG
Consider B1, for which the Ka came out at 2.6e+06 M⁻¹ and the Kd amounted to 380 nM.
